The results in this text go back to paper PMC5327734 (Nature communications, 2015).

In the test the target is T1, pre-activated, recombinant, full length, human MST1 protein kinase (human, UniProt Q13043 1-487).
T1 sequence (looked up): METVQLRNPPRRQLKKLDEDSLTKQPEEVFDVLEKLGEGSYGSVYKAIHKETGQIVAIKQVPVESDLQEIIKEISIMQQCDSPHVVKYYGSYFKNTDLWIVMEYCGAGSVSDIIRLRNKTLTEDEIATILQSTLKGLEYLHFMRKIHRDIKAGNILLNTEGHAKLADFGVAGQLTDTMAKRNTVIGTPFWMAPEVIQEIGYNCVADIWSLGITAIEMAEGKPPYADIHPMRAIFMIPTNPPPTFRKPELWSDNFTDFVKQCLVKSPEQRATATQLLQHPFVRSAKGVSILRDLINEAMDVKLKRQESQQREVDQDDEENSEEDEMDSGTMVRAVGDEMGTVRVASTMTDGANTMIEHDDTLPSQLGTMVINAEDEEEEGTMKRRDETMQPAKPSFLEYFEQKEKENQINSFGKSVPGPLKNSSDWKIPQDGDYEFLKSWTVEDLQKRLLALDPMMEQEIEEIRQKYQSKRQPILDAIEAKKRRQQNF
Description: pull-down.

B1: GST-YAP1-PR/TEAD (residues 2-150) (domain or fragment, UniProt P46937 2-150, looked up)
chain: DPGQQPPPQPAPQGQGQPPSQPPQGQGPPSGPGQPAPAATQAAPQAPPAGHQIVHVRGDSETDLEALFNAVMNPKTANVPQTVPMRLRKLPDSFFKPPEPKSHSRQASTDAGTAGALTPQHVRAHSSPASLQLGAVSPGTLTPTGVVSG
Consider B1, for which the binding result is “binds”.
